This note sets out measurements from paper PMC8482623.

Substrate in the series: Nc1ncnc2c1ncn2[C@@H]1O[C@H](COP(=O)(O)OP(=O)(O)OP(=O)(O)O)[C@@H](O)[C@H]1O
Description: purified protein. The note with it: 50 mM Tris-HCl pH 8.0, 20 mM MgCl2, 1 mM EDTA, 37 °C.

B1: mBcs1 (full-length mouse Bcs1; mBcs1-His) (Mus musculus) (protein)
chain: MPFSDFVLALKDNPYFGAGFGLVGVGTALAMARKGAQLGLVAFRRHYMITLEVPARDRSYAWLLSWLTRHSTRTQHLSVETSYLQHESGRISTKFEFIPSPGNHFIWYQGKWIRVERNRDMQMVDLQTGTPWESVTFTALGTDRKVFFNILEEARALALQQEEGKTVMYTAVGSEWRTFGYPRRRRPLDSVVLQQGLADRIVKDIREFIDNPKWYIDRGIPYRRGYLLYGPPGCGKSSFITALAGELEHSICLLSLTDSSLSDDRLNHLLSVAPQQSLVLLEDVDAAFLSRDLAVENPIKYQGLGRLTFSGLLNALDGVASTEARIVFMTTNYIDRLDPALIRPGRVDLKEYVGYCSHWQLTQMFQRFYPGQAPSLAENFAEHVLKATSEISPAQVQGYFMLYKNDPMGAVHNIESLR
B1: the Km (usually the concentration of substrate that gives half-maximal velocity) was found to be 40 µM.
